# Source: patent US20170290876A1 (Novartis, published 2017)
# T1: human VEGF (human, UniProt P15692 207-395, biotinylated (site not stated))
# T1 construct: Biotinylated human VEGF generated internally; also called hVEGF; hVEGF-biotin
# T1 sequence: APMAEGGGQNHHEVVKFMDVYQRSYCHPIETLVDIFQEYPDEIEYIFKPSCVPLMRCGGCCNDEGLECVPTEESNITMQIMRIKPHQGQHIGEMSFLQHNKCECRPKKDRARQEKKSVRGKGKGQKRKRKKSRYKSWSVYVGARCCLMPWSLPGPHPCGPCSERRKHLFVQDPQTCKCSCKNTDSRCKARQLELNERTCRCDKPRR
# B1: NVS4 heavy chain variant Y34H (Fab, V domains shown)
# VH: EVQLVESGGGLVQPGGSLRLSCTASGFSLTDYYHMTWVRQAPGKGLEWVGFIDPDDDPYYATWAKGRFTISRDNSKNTLYLQMNSLRAEDTAVYYCAGGDHNSGWGLDIWGQGTLVTVSS
# VL: EIVMTQSPSTLSASVGDRVIITCQASEIIHSWLAWYQQKPGKAPKLLIYLASTLASGVPSRFSGSGSGAEFTLTISSLQPDDFATYYCQNVYLASTNGANFGQGTKLTVLK
# notes: CDR variant of NVS4
# B2: HC6T (Fab, V domains shown)
# VH: EVQLVESGGGLVQPGGSLRLSCTASGFSLTNYYYMTWVRQAPGKGLEWVGFIDPQNQPYYATWAKGRFTISRDNSKNTLYLQMNSLRAEDTAVYYCAGGNHNSGWGLNIWGQGTLVTVSS
# VL: EIVMTQSPSTLSASVGDRVIITCQASEIIHSWLAWYQQKPGKAPKLLIYLASTLASGVPSRFSGSGSGAEFTLTISSLQPDDFATYYCQNVYLASTNGANFGQGTKLTVLK
# notes: Tagged heavy chain CDR variant HC6 with NVS4 light chain
# B3: HC8T (Fab, V domains shown)
# VH: EVQLVESGGGLVQPGGSLRLSCTASGFSLTKYYYMTWVRQAPGKGLEWVGFIKPDKKPKYATWAKGRFTISRDNSKNTLYLQMNSLRAEDTAVYYCAGGDHNSGWGLDIWGQGTLVTVSS
# VL: EIVMTQSPSTLSASVGDRVIITCQASEIIHSWLAWYQQKPGKAPKLLIYLASTLASGVPSRFSGSGSGAEFTLTISSLQPDDFATYYCQNVYLASTNGANFGQGTKLTVLK
# notes: Tagged heavy chain CDR variant HC8 with NVS4 light chain
# B4: HC1.2T (Fab, V domains shown)
# VH: EVQLVESGGGLVQPGGSLRLSCTASGFSLTSYYYMTWVRQAPGKGLEWVGFIDPQNNPYYATWAKGRFTISRDNSKNTLYLQMNSLRAEDTAVYYCAGGDHNSGWGLDIWGQGTLVTVSS
# VL: EIVMTQSPSTLSASVGDRVIITCQASEIIHSWLAWYQQKPGKAPKLLIYLASTLASGVPSRFSGSGSGAEFTLTISSLQPDDFATYYCQNVYLASTNGANFGQGTKLTVLK
# notes: Tagged heavy chain CDR variant HC1.2 with NVS4 light chain
# B5: NVS4 light chain variant T96R (Fab, V domains shown)
# VH: EVQLVESGGGLVQPGGSLRLSCTASGFSLTDYYYMTWVRQAPGKGLEWVGFIDPDDDPYYATWAKGRFTISRDNSKNTLYLQMNSLRAEDTAVYYCAGGDHNSGWGLDIWGQGTLVTVSS
# VL: EIVMTQSPSTLSASVGDRVIITCQASEIIHSWLAWYQQKPGKAPKLLIYLASTLASGVPSRFSGSGSGAEFTLTISSLQPDDFATYYCQNVYLASRNGANFGQGTKLTVLK
# notes: CDR variant of NVS4
# B6: HC2T (Fab, V domains shown)
# VH: EVQLVESGGGLVQPGGSLRLSCTASGFSLTNYYYMTWVRQAPGKGLEWVGFIDPQNDPYYATWAKGRFTISRDNSKNTLYLQMNSLRAEDTAVYYCAGGNHNSGWGLDIWGQGTLVTVSS
# VL: EIVMTQSPSTLSASVGDRVIITCQASEIIHSWLAWYQQKPGKAPKLLIYLASTLASGVPSRFSGSGSGAEFTLTISSLQPDDFATYYCQNVYLASTNGANFGQGTKLTVLK
# notes: Tagged heavy chain CDR variant HC2 with NVS4 light chain
# B7: NVS4 light chain variant I28K (Fab, V domains shown)
# VH: EVQLVESGGGLVQPGGSLRLSCTASGFSLTDYYYMTWVRQAPGKGLEWVGFIDPDDDPYYATWAKGRFTISRDNSKNTLYLQMNSLRAEDTAVYYCAGGDHNSGWGLDIWGQGTLVTVSS
# VL: EIVMTQSPSTLSASVGDRVIITCQASEKIHSWLAWYQQKPGKAPKLLIYLASTLASGVPSRFSGSGSGAEFTLTISSLQPDDFATYYCQNVYLASTNGANFGQGTKLTVLK
# notes: CDR variant of NVS4
# B8: NVS4 light chain variant T53K (Fab, V domains shown)
# VH: EVQLVESGGGLVQPGGSLRLSCTASGFSLTDYYYMTWVRQAPGKGLEWVGFIDPDDDPYYATWAKGRFTISRDNSKNTLYLQMNSLRAEDTAVYYCAGGDHNSGWGLDIWGQGTLVTVSS
# VL: EIVMTQSPSTLSASVGDRVIITCQASEIIHSWLAWYQQKPGKAPKLLIYLASKLASGVPSRFSGSGSGAEFTLTISSLQPDDFATYYCQNVYLASTNGANFGQGTKLTVLK
# notes: CDR variant of NVS4
# B9: NVS4 light chain variant H30K (Fab, V domains shown)
# VH: EVQLVESGGGLVQPGGSLRLSCTASGFSLTDYYYMTWVRQAPGKGLEWVGFIDPDDDPYYATWAKGRFTISRDNSKNTLYLQMNSLRAEDTAVYYCAGGDHNSGWGLDIWGQGTLVTVSS
# VL: EIVMTQSPSTLSASVGDRVIITCQASEIIKSWLAWYQQKPGKAPKLLIYLASTLASGVPSRFSGSGSGAEFTLTISSLQPDDFATYYCQNVYLASTNGANFGQGTKLTVLK
# notes: CDR variant of NVS4
# B10: NVS4 heavy chain variant Y59H (Fab, V domains shown)
# VH: EVQLVESGGGLVQPGGSLRLSCTASGFSLTDYYYMTWVRQAPGKGLEWVGFIDPDDDPHYATWAKGRFTISRDNSKNTLYLQMNSLRAEDTAVYYCAGGDHNSGWGLDIWGQGTLVTVSS
# VL: EIVMTQSPSTLSASVGDRVIITCQASEIIHSWLAWYQQKPGKAPKLLIYLASTLASGVPSRFSGSGSGAEFTLTISSLQPDDFATYYCQNVYLASTNGANFGQGTKLTVLK
# notes: CDR variant of NVS4
# B11: HC4T (Fab, V domains shown)
# VH: EVQLVESGGGLVQPGGSLRLSCTASGFSLTNYYYMTWVRQAPGKGLEWVGFIDPQNDPYYATWAKGRFTISRDNSKNTLYLQMNSLRAEDTAVYYCAGGNHNSGWGLNIWGQGTLVTVSS
# VL: EIVMTQSPSTLSASVGDRVIITCQASEIIHSWLAWYQQKPGKAPKLLIYLASTLASGVPSRFSGSGSGAEFTLTISSLQPDDFATYYCQNVYLASTNGANFGQGTKLTVLK
# notes: Tagged heavy chain CDR variant HC4 with NVS4 light chain
# B12: HC1.1T (Fab, V domains shown)
# VH: EVQLVESGGGLVQPGGSLRLSCTASGFSLTSYYYMTWVRQAPGKGLEWVGFIDPQNNPYYATWAKGRFTISRDNSKNTLYLQMNSLRAEDTAVYYCAGGDHNSGWGLNIWGQGTLVTVSS
# VL: EIVMTQSPSTLSASVGDRVIITCQASEIIHSWLAWYQQKPGKAPKLLIYLASTLASGVPSRFSGSGSGAEFTLTISSLQPDDFATYYCQNVYLASTNGANFGQGTKLTVLK
# notes: Tagged heavy chain CDR variant HC1.1 with NVS4 light chain
# B13: NVS4 heavy chain variant Y59F (Fab, V domains shown)
# VH: EVQLVESGGGLVQPGGSLRLSCTASGFSLTDYYYMTWVRQAPGKGLEWVGFIDPDDDPFYATWAKGRFTISRDNSKNTLYLQMNSLRAEDTAVYYCAGGDHNSGWGLDIWGQGTLVTVSS
# VL: EIVMTQSPSTLSASVGDRVIITCQASEIIHSWLAWYQQKPGKAPKLLIYLASTLASGVPSRFSGSGSGAEFTLTISSLQPDDFATYYCQNVYLASTNGANFGQGTKLTVLK
# notes: CDR variant of NVS4
# B14: HC7T (Fab, V domains shown)
# VH: EVQLVESGGGLVQPGGSLRLSCTASGFSLTKYYYMTWVRQAPGKGLEWVGFIKPKDKPYKATWAKGRFTISRDNSKNTLYLQMNSLRAEDTAVYYCAGGDHNSGWGLDIWGQGTLVTVSS
# VL: EIVMTQSPSTLSASVGDRVIITCQASEIIHSWLAWYQQKPGKAPKLLIYLASTLASGVPSRFSGSGSGAEFTLTISSLQPDDFATYYCQNVYLASTNGANFGQGTKLTVLK
# notes: Tagged heavy chain CDR variant HC7 with NVS4 light chain
# B15: LC1T (Fab, V domains shown)
# VH: EVQLVESGGGLVQPGGSLRLSCTASGFSLTDYYYMTWVRQAPGKGLEWVGFIDPDDDPYYATWAKGRFTISRDNSKNTLYLQMNSLRAEDTAVYYCAGGDHNSGWGLDIWGQGTLVTVSS
# VL: EIVMTQSPSTLSASVGDRVIITCQASQIIHSWLAWYQQKPGKAPKLLIYQASTLAKGVPSRFSGSGSGAEFTLTISSLQPDDFATYYCQNVYLASTNGANFGQGTKLTVLK
# notes: Light chain CDR variant LC1 of NVS4 with tagged NVS4 heavy chain
# B16: NVS4 light chain variant S95K (Fab, V domains shown)
# VH: EVQLVESGGGLVQPGGSLRLSCTASGFSLTDYYYMTWVRQAPGKGLEWVGFIDPDDDPYYATWAKGRFTISRDNSKNTLYLQMNSLRAEDTAVYYCAGGDHNSGWGLDIWGQGTLVTVSS
# VL: EIVMTQSPSTLSASVGDRVIITCQASEIIHSWLAWYQQKPGKAPKLLIYLASTLASGVPSRFSGSGSGAEFTLTISSLQPDDFATYYCQNVYLAKTNGANFGQGTKLTVLK
# notes: CDR variant of NVS4
# B17: HC3T (Fab, V domains shown)
# VH: EVQLVESGGGLVQPGGSLRLSCTASGFSLTNYYYMTWVRQAPGKGLEWVGFIDPQNNPYYATWAKGRFTISRDNSKNTLYLQMNSLRAEDTAVYYCAGGNHNSGWGLDIWGQGTLVTVSS
# VL: EIVMTQSPSTLSASVGDRVIITCQASEIIHSWLAWYQQKPGKAPKLLIYLASTLASGVPSRFSGSGSGAEFTLTISSLQPDDFATYYCQNVYLASTNGANFGQGTKLTVLK
# notes: Tagged heavy chain CDR variant HC3 with NVS4 light chain
# B18: HC1T (Fab, V domains shown)
# VH: EVQLVESGGGLVQPGGSLRLSCTASGFSLTSYYYMTWVRQAPGKGLEWVGFIDPQNNPYYATWAKGRFTISRDNSKNTLYLQMNSLRAEDTAVYYCAGGSHNSGWGLNIWGQGTLVTVSS
# VL: EIVMTQSPSTLSASVGDRVIITCQASEIIHSWLAWYQQKPGKAPKLLIYLASTLASGVPSRFSGSGSGAEFTLTISSLQPDDFATYYCQNVYLASTNGANFGQGTKLTVLK
# notes: Tagged heavy chain CDR variant HC1 with NVS4 light chain
# B19: NVS4 light chain variant Y92F (Fab, V domains shown)
# VH: EVQLVESGGGLVQPGGSLRLSCTASGFSLTDYYYMTWVRQAPGKGLEWVGFIDPDDDPYYATWAKGRFTISRDNSKNTLYLQMNSLRAEDTAVYYCAGGDHNSGWGLDIWGQGTLVTVSS
# VL: EIVMTQSPSTLSASVGDRVIITCQASEIIHSWLAWYQQKPGKAPKLLIYLASTLASGVPSRFSGSGSGAEFTLTISSLQPDDFATYYCQNVFLASTNGANFGQGTKLTVLK
# notes: CDR variant of NVS4
# Target: T1, human VEGF
# Experiment: Biacore SPR, hVEGF
# Experimental: At first, individual CDR residues were substituted and the affinity for hVEGF was measured by Biacore as described below. […] HC8T, and HC9T and the affinity of the resulting peptide-tagged Fab for both HA and hVEGF was measured by Biacore as described below (Table 17).
# Affinity of optimized HA-binding peptide tags for HA and human VEGF were measured by Biacore. […] In order to determine target kinetics, two different formats were utilized. […] The second format is an anti-fab capture method in which the fab protein samples are captured and the target proteins flowed over at various concentrations.
# The sample compartment which includes the analytes, ligands, and regeneration buffer, is kept at 15° C. All other running conditions were carried out at either 25° C. or 37° C. in 1×HBSE+P buffer. […] Data was collected at 10 Hz and analyzed using the Biacore T200 Evaluation Software (GE Healthcare®). This program uses a global fitting analysis method for the determination of rate and affinity constants for each interaction.
Binder,Kd [nM],koff [s⁻¹],kon [M⁻¹ s⁻¹]
B1,0.15,0.000445,2.97e+06
B2,0.0499,0.00624,1.25e+08
B3,0.948,0.0026,2.74e+06
B4,0.0414,0.00456,1.1e+08
B5,0.00244,1.37e-05,5.6e+06
B6,0.0111,0.000862,7.8e+07
B7,0.00534,3e-05,5.62e+06
B8,0.00282,1.3e-05,4.6e+06
B9,0.0355,0.000149,4.22e+06
B10,0.0563,0.000119,2.11e+06
B11,0.00993,0.000912,9.18e+07
B12,0.0779,0.00854,1.1e+08
B13,0.0311,0.000104,3.34e+06
B14,0.554,0.186,3.37e+08
B15,0.00123,7.3e-05,5.95e+07
B16,0.0819,0.000482,5.88e+06
B17,0.08,0.00898,1.12e+08
B18,0.0883,0.00852,9.65e+07
B19,0.0415,7.84e-05,1.89e+06
